According to article doi:10.1101/2024.07.29.605612 (bioRxiv, 2024):

Biological target: ribosomal protein uS14 (Escherichia coli (endogenous in K-12 …, UniProt P0AG59 1-101))
Experiment: cryo-EM structure

binding result: binds
B1: catalytically inactive mutant of RNase I (H55F/H133F) (enzyme)
chain: LALQAKQYGDFDRYVLALSWQTGFCQSQHDRNRNERDECRLQTETTNKADFLTVFGLWPGLPKSVAARGVDERRWMRFGCATRPIPNLPEARASRMCSSPETGLSLETAAKLSEVMPGAGGRSCLERYEYAKFGACFGFDPDAYFGTMVRLNQEIKESEAGKFLADNYGKTVSRRDFDAAFAKSWGKENVKAVKLTCQGNPAYLTEIQISIKADAINAPLSANSFLPQPHPGNCGKTFVIDKAGY
